According to PMC5339304:

Biological target: DC-specific intercellular adhesion molecule 3-grabbing non-integrin (DC-SIGN) (human) (UniProt Q9NNX6)
Assay: atomic force spectroscopy (AFM force spectroscopy); MUB covalently attached to the AFM tip (MAL-PEG-SCM linker), DC-SIGN, SIGN-R1 or Dectin-2 covalently attached to glass slides (GMBS); PBS; force-volume mode, 2 um/s, maximum load force 300 pN; repeated after addition of 0.05 mg/ml anti-Mub antibody

modal value of binding strength: 684 pN
Substance: mucus-binding protein MUB of Lactobacillus reuteri ATCC 53608 (natural protein)
